# Assay results taken from the supplement of paper PMC9170038.
# Legend:
# MS2 coat protein [1] = test: apparent KD of MS2 coat protein, switch OFF state (with FMN for OFF switches, without FMN for ON switches); designed switch direction (-1 OFF switch, 1 ON switch): 1; higher = weaker reporter binding; conditions: FMN input: 0 or 200 uM; Eterna round: R93 (includes R88 designs)
# In short: (§1)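 Illumina sequencing clusters served as templates for on-chip transcription of the designed RNA switches. SNAP-549-labelled MS2 coat protein was then titrated in twofold steps from 0.7 or 1.5 nM to 3 µM, allowing 0.8–1.5 h per step at first and 10–20 min per step later. The buffer held 100 mM Tris-HCl pH 7.5, 80 mM KCl and 4 mM MgCl2, without or with constant ligand. Apparent KD is the median per design of normalised cluster binding-curve fits.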
# MS2 coat protein [2] = test: apparent KD of MS2 coat protein, switch ON state; designed switch direction (-1 OFF switch, 1 ON switch): 1; higher = weaker reporter binding; conditions: FMN input: 0 or 200 uM; Eterna round: R93 (includes R88 designs)
# In short: as §1
Sequence,apparent KD of MS2 coat protein (MS2 coat protein [1]) [nM],apparent KD of MS2 coat protein (MS2 coat protein [2]) [nM]
GAAAAACAUGAGGAUCACCCAUGUAGAAAUAUGGGAGGAUAUACAAAGACGAAAGUCAAAGUAGAAGGCCUAAAGA [Mat - Same State 1 - Eli mod - 34],91.1,15.5
GGGAGACAUGAGGAUCACCCAUGUAGAAGGAUGGGAGGAUAUACAAAGACGAGAGUCAGAGUAGAAGGCCUAGGAA [salish99-ss1-189-4KCAL],58.5,29
AAAUAAAUGACUCAGGAUAUAUCAUAGGGUACAUGAGGAUCACCCAUGUUUUAAUAACAUGUUUGGUAGAAGGGAGUCAAUAAAU [LROPPY Same State 2 - v07_deltaG=1.69],133,85.1
AGAAGACAUGAGGAUCACCCAUGUGGGAUUAUGGGAGGAUAUACAAAGACGAGAGUCAGAGUAGAAGGCCUAGGAA [salish99-ss1-112(!!!!!)],70.5,29
GGGAGACAUGAGGAUCACCCAUGUGAGAAGAGGCGAGGAUAUCGAAAGAAAGAAGAGAAACGAGAAGGCGCGAGCC [salish99-SS1-064],66.4,94.2
GAGAUACAUGAGGAUCACCCAUGUUGAUACAUGGGAGGAUAUACAAGGUCGAAAGAUAAGGUAGAAGGCCUAAAAG [LROPPY Same State 1 - v04_deltaG=3.5],15.7,47.1
AAUAUACAUGAGGAUCACCCAUGUUUUAAUAACUCAGGAUAUACGGGUGAAAACAGCAUAGUAGAAGGGAGAAAAA [SameState1 Malc#2],113,44
AAAAAAAAAAGUCAGGAUAUACAAAUUUUUACAUGAGGAUCACCCAUGUUAAGGAAAAAAAAAAAGUAGAAGGGACAAAAAAAAAA [Same State 2 - Omei 3],21.4,15.3
AAAAAAUAAAAAAAGGAUAUAAUGCUACAGACAUGAGGAUCACCCAUGUAGGUAGCAAAAAUAAAAAAGAAGGAAAAAUAAAAAA [SS2: MS2 31],13.1,11.4
AAAAGACAUGAGGAUCACCCAUGUCAAAAGACAUGAGGAUAUGUACAGACUUCGGUCUGUACAGAAGGCAUAAAAA [SS1 - 1060],32.5,18.6
AAAUAAAGGACUAAGGAUAUAUCACAUGAAACAUGAGGAUCACCCAUGUAAUAAUACAAAGGGUGAUAGAAGGUAGUCCACAAACA [Pariah 5 (MS2 Riboswitches - Same State 2)],37.1,14.9
GAAAAACAUGAGGAUCACCCAUGUAAGAUAAACACAGGAUAUGCGAAAAUAAAUAAAGAAGCAGAAGGGUGAAGAA [Mat - Same State 1 - Tesla mod - 73],26.5,11.1
AAAUAAAUGACUCAGGAUAUAUCAUAGAAAACAUGAGGAUCACCCAUGUAAUAAUAACAUGUUUGGUAGAAGGGAGUCAAUAAAU [LROPPY Same State 2 - v04_deltaG=1.25],18.6,31.1
AAAACACAUGAGGAUCACCCAUGUAGAAAUACGGGAGGAUAUGCGAAAACGAAAGACAAAGCAGAAGGCCUAAAAG [saturn 6],35,12.3
AGCGAACAUGAGGAUCACCCAUGUGAAAAACAUAGAGGAUAUGUCGCAUGAGUGUAAAAGACAGAAGGCUAUCGCA [Mod of Nando],116,38.8
AACAUACAUGAGGAUCACCCAUGUUCCGGCAGGACAGGAUAUACAUCGAAAGUGUUAUAAGUAGAAGGGUCAUAAA [JR_SS001_Sub012],66.5,56.7
CGAAAGGAGAGAGAGGAUAUCCAAAGGAAAACAUGAGGAUCACCCAUGUAGAAGGUAGGAGAUUGGGAGAAGGCUCAAGAGAGUA [salish99-ss2-149],36.3,25.7

Sequence,apparent KD of MS2 coat protein (MS2 coat protein [1]) [nM],apparent KD of MS2 coat protein (MS2 coat protein [2]) [nM]
GAAAAACAUGAGGAUCACCCAUGUGAGAAUAUGGGAGGAUAUACGAAGACGAGAGUCAAAGUAGAAGGCCUAAAAG [Mat - Same State 1 - Eli mod - 30],82.9,27.2
GAGAGGAAGAGAGAGGAUAUCCAAAGGAAAACAUGAGGAUCACCCAUGUAAAAGGUAGGAAAUUGGGAGAAGGCUCAAGAGAGAG [salish99-ss2-063],29.6,29.1
AACAAUCUAUCUGAGGAUAUCAUGACAAAGACAUGAGGAUCACCCAUGUACCAGGAAACUGGUUAUGAGAAGGCAGAUAGAUUGA [SS2: 1117],18.8,11.5
UAGCAGUGCGGGUAGGAUAUGUAGGGUGGUACAUGAGGAUCACCCAUGUAUCCACCCUUCGACCGGCAGAAGGGCCUGUCACUGC [Edor],16.9,17.9
"AGGAAACAUGAGGAUCACCCAUGUAAAAAAUGGGUAGGAUAUGCGAAAAGAAAAAGAAAAGCAGAAGGGCCAAGAA [62%, Something completely different, 3]",444,46
AAAGAAAAACUAGAGGAUAUCCGAAUGGUAACAUGAGGAUCACCCAUGUGAAGAAAGGAACAUGAGGAGAAGGCUAGAAGAAAAA [JL Nando mod 10],23.4,18.8
"AAAAAACAUGAGGAUCACCCAUGUAGAAAUAUGGGAGGAUAUGGAAACACGAAAGUGAAACCAGAAGGCUCAAAAG [77%, Mat - Mod of Eli, 8]",69.5,26.6
GCUUAUCCAUGCUAGGAUAUCGGCGAGAAAACAUGAGGAUCACCCAUGUGCUUGCAUAAAAGUCACGAGAAGGAGCCUGAUGGAC [Quanletira],17.3,19.7
AGCAUCACCAGUCAGGAUAUGUAGGCCUUGACAUGAGGAUCACCCAUGUGGACGAAACACCGGCCACAGAAGGGAUUGUAAAUAA [Ries],67.4,434
AGACAUAAAAGAGAGGAUAUCCAAAAGAAAACAUGAGGAUCACCCAUGUGAAAGAAAAUAAAAUGGGAGAAGGCUCACAUACAGA [Topaz 36],27.4,14.1
AAAAGACAUGAGGAUCACCCAUGUAAAAACAUAGGAGGAUAUGUCUUGAAAAAAGACUUGACAGAAGGCCUUUGUC [SS1 - 52],75.2,39.5
GGAAGACAUGAGGAUCACCCAUGUGGGAUUAUGGGAGGAUAUACAAAGACGAGAGUCAGAGUAGAAGGCCUAGGAG [salish99-ss1-122(!)],107,61.1
AAUACACAUGAGGAUCACCCAUGUAGAAAGAAGUCAGGAUAUCCGAUCCACAUGUGAUAAGGAGAAGGGACAAUAA [SS 1 Tesla 8],95.4,19.6
UCGUCCUCGUGCUAGGAUAUCCAUCGUAAAACAUGAGGAUCACCCAUGUAGAAAUGCGCCUACGAGGAGAAGGAGCGAUGUGGAU [Velemageer],19,14.9
AUAAAACAUGAGGAUCACCCAUGUCAAGGCUAUCAAGGAUAUAGGAAGCGUAGCGGUUGACUAGAAGGUGAGAAAU [Ragexequ],52.4,66.9
AAACCACAUGAGGAUCACCCAUGUCCAAAAAAACAAGGAUAUAUAAAAAAAAAAAAAAAAAUAGAAGGUGUAAAAA [<insert title here>],113,75.5
